For this assay, the target named is T1, 32-N MB.v3.
T1 construct: Self-assembled apoferritin nanocage (Multabody), plasmids co-transfected 3:1:1; monomeric IgG1 Fc chain at the C-terminus of C-ferritin, which dimerises in the particle; also called Multabody.v3; T-01 MBv2
The assay can be described thus: BLI, His-tagged FcγRIIa on Ni-NTA biosensors, Multabody in solution [8f]. For orientation: Biolayer interferometry detects binding as a change in optical thickness at a sensor tip.

The source of these data is patent publication US20240317842A1 (HOSPITAL FOR SICK CHILDREN, published 2024).

B1: FcRIIa (receptor, human, UniProt P12318 34-217, looked up)
receptor chain: QAAAPPKAVLKLEPPWINVLQEDSVTLTCQGARSPESDSIQWFHNGNLIPTHTQPSYRFKANNNDSGEYTCQTGQTSLSDPVHLTVLSEWLVLQTPHLEFQEGETIMLRCHSWKDKPLVKVTFFQNGKSQKFSHLDPTFSIPQANHSHSGDYHCTGNIGYTLFSSKPVTITVQVPSMGSSSPMG
notes: His-tagged ligand loaded on Ni-NTA biosensors; also called FcγRIIa
Consider B1, for which the binding result is “no binding”.
